Measured values reported in PMC9573943, “Contribution of the 12–17 hydrophobic region of islet amyloid polypeptide in self-assembly and cytotoxicity” (Frontiers in Molecular Biosciences, 2022).
Bridge positions count the residues as written; N and C are the ends. Ends that are not written are not given here.

How the values were obtained:
[1] = Peptide self-assembly under fully quiescent conditions (CD, ThT and ANS fluorescence, TEM, AFM); format: physicochemical; conditions: 50 μM peptide; for Assemblies observed by TEM after 48 h incubation: negative stain TEM; for Overall effect of the substitution on amyloid formation, in words: CD, ThT, ANS, TEM, compared with unmodified IAPP; for Incubation time at which the random coil to β-sheet conformational transition is seen (far-UV CD) / Secondary conformation / conformational transition over incubation (far-UV CD), in words: fully quiescent; for Incubation time at which the random coil to β-sheet conformational transition is seen (far-UV CD): microtubes, diluted to 25 μM for CD; for ThT fluorescence of incubated peptide, in words: diluted to 25 μM with 40 μM ThT; for Secondary conformation / conformational transition over incubation (far-UV CD), in words: up to 7 days
Description: Solutions were prepared by dissolving the peptide at a concentration of 50 μM in 20 mM Tris-HCl, pH 7.4, and were incubated at room temperature without agitation in 1.5 ml Eppendorf microtubes. For IAPP12-17, the lyophilized peptide was dissolved in 20 mM acetate pH 6.5 in the presence of 3% DMSO, or HFIP, at a final concentration of 500 μM and the peptide solution was incubated at 37 °C under constant rotational agitation.
At the indicating time of incubation, peptide solutions were diluted to 25 μM in presence of 40 μM ThT, or 25 μM 8-anilino-1-naphthalenesulfonic acid (ANS). Fluorescence was measured in 10-mm pathlength microcells using a PTI QuantaMaster spectrofluorometer. For ThT, excitation was set at 440 nm, and the emission spectrum from 450 to 550 nm was recorded. For ANS, the excitation was set at 355 nm, and the emission scan was recorded from 385 to 585 nm.
After incubation, peptide solutions were diluted in water to 25 μM and incorporated into a 2-mm path length quartz cell. For IAPP12-17, the solution was diluted to 150 μM. Far-UV CD spectra were recorded from 190 to 260 nm using a Jasco J-815 CD spectropolarimeter at 25°C. The wavelength step was set at 0.5 nm with an average time of 10 s per scan at each wavelength. Spectra were background-subtracted with buffer solution. Raw data were converted to mean residue ellipticity (MRE): MRE=Mean residue weight (g/mol)X CD signal (deg)/10 X pathlength (cm) X peptide concentration (g/mL)
After incubation, peptide solutions were diluted to 10 μM, or 100 μΜ for IAPP12-17, before being applied on glow-discharged carbon films on 300-mesh copper grids. Samples were adsorbed and negatively stained with 1.5% uranyl formate for 45 s. Images were recorded using a FEI Tecnai G2 Spirit Twin microscope operating at 120 kV and equipped with a Gatan Ultrascan scan 4,000 4k × 4k CCD camera system.
After incubation, peptide solutions were diluted in 1% acetic acid to a concentration of 7.5 μΜ. […] Images were recorded using Veeco/Bruker multimode AFM instrument using ScanAsyst-air mode with a silicon tip (2–12 nm tip radius, 0.4 N/m force) on a nitride lever. Images were taken at 0.977 Hz and 512 scan/min.

[2] = system: INS-1E cells; assay: Cell viability by resazurin reduction; format: cell-based, Rat; conditions: freshly dissolved peptide up to 50 μM, 24 h, at least five assays
Description: (§1) Rat INS-1E cells were cultured in treated black-wall clear-bottom 96-well plates at a density of 25,000 cell/well in RPMI-1640 medium supplemented with 10% FBS, 2 mM L-glutamine, 100 U/ml penicillin, 100 μg/ml streptomycin, 10 mM HEPES, 1 mM sodium pyruvate and 50 μM β-mercaptoethanol. After 48 h of incubation at 37°C in 5% CO2, cells were treated with 50 μL of peptide freshly dissolved in 20 mM Tris-HCl, pH 7.4. […] Cell viability (%) was calculated from the ratio of the fluorescence of the treated cells to the vehicle-treated cells. Data of at least five assays performed with different peptide lots were averaged and expressed as the mean ± S.D. Statistical analysis was performed using Student’s t test, and statistically significant difference was established at (*) p < 0.05; (**) p < 0.005; (***) p < 0.0005. For Live/Dead viability assay, cells were plated in 12-well plates at density of 250,000 cell/well for 48 h before treatment with 25 μM peptide.

[3] = Kinetics of amyloid formation monitored by ThT fluorescence; format: physicochemical; conditions: 40 μM ThT, 20 mM Tris-HCl pH 7.4, 25°C, no agitation
Description: Aggregation mixtures were prepared by dissolving the lyophilized peptide at a concentration of 50 μM in 20 mM Tris-HCl, pH 7.4. Assays were performed at 25°C without stirring in sealed black-wall clear-bottom 96-well nonbinding surface plates with 100 μL/well. Final peptide concentrations were 12.5 and 25 μM, and thioflavin T (ThT) concentration was fixed at 40 μM. Fluorescence was measured every 10 min (excitation: 440 nm, emission: 485 nm) and data from triplicate wells were averaged, corrected by subtracting the blank control, and plotted as ThT fluorescence vs. time. Data were normalized with maximum ThT fluorescence intensity obtained for unmodified IAPP. Data were fitted to a sigmoidal Boltzmann model: Y=Yo+(Ymax−Yo)/1+e^−(T−T50)/ K where T 50 is the time required to reach half of the maximum fluorescence intensity, k is the apparent first-order constant, and Y max and Y 0 are the maximum and initial ThT fluorescence values. Lag time corresponds to T50 - 2/k. Data of at least six assays performed with different peptide lots were averaged and expressed as the mean ± S.D. Statistical analysis was performed using Student’s t test, and statistically significant difference between IAPP and analogs was established at (*) p < 0.05; (**) p < 0.005; (***) p < 0.0005.

[4] = system: INS-1E cells; assay: Live/Dead viability assay (calcein-AM / ethidium homodimer-1, fluorescence microscopy); format: cell-based, Rat; conditions: 25 μM freshly solubilized peptide, 24 h, calcein-AM (green, live) and ethidium homodimer-1 (red, dead)
Description: as §1

[5] = 20 mM Tris-HCl pH 7.4, quiescent
[6] = 20 mM Tris-HCl pH 7.4, room temperature

A13G: full-length IAPP with Ala13 substituted by Gly (KCNTATCATQRLGNFLVHSSNNFGAILSSTNVGSNTY; disulfide 2-7; ends not checked; UniProt P10997 34-70, looked up, variant A13G)
Assemblies observed by TEM after 48 h incubation [1, 5]: presence of fibrillar aggregates | Overall effect of the substitution on amyloid formation, in words [1, 5]: accelerates IAPP amyloid self-assembly | Incubation time at which the random coil to β-sheet conformational transition is seen (far-UV CD) [1, 6]: ≤ 6 h | Cytotoxicity compared with unmodified IAPP, in words [2]: higher cytotoxicity compared to unmodified IAPP

A13P: full-length IAPP with Ala13 substituted by Pro (KCNTATCATQRLPNFLVHSSNNFGAILSSTNVGSNTY; disulfide 2-7; ends not checked; UniProt P10997 34-70, looked up, variant A13P)
Assemblies observed by TEM after 48 h incubation [1, 5]: Prototypical fibrils | Overall effect of the substitution on amyloid formation, in words [1, 5]: accelerated amyloid formation | Incubation time at which ThT and ANS positive signal arises ([1]; 20 mM Tris-HCl pH 7.4, quiescent, diluted to 25 μM with 40 μM ThT or 25 μM ANS): 6 h | Incubation time at which the random coil to β-sheet conformational transition is seen (far-UV CD) [1, 6]: 4 h | Cytotoxicity compared with unmodified IAPP, in words [2]: increased the cytotoxicity of IAPP at 12.5 and 25 μM

F15P: full-length IAPP with Pro at position Phe15 (KCNTATCATQRLANPLVHSSNNFGAILSSTNVGSNTY; disulfide 2-7; ends not checked; UniProt P10997 34-70, looked up, variant F15P)
Assemblies observed by TEM after 48 h incubation [1, 5]: absence fibrillar aggregates | Assemblies observed by AFM after 96 h incubation ([1]; 20 mM Tris-HCl pH 7.4, room temperature, no agitation, 96 h): typical fibrils

L12A: full-length IAPP with Leu→Ala substitution at position 12 (KCNTATCATQRAANFLVHSSNNFGAILSSTNVGSNTY; disulfide 2-7; ends not checked; UniProt P10997 34-70, looked up, variant L12A)
Increase of ThT fluorescence signal ([3]; 12.5 μM peptide): no increase of ThT fluorescence signal could be detected | Lag time of amyloid formation ([3]; 25 μM peptide, nonbinding surface 96-well plate, read every 10 min, lag time = T50 - 2/k, mean ± S.D. of at least six assays): 13.5 ± 4.1 h | Assemblies observed by TEM after 48 h incubation [1, 5]: long and twisted fibrils | ANS fluorescence of incubated peptide, in words ([1]; 20 mM Tris-HCl pH 7.4, quiescent, diluted to 25 μM with 25 μM ANS): low ANS fluorescence | ThT fluorescence of incubated peptide, in words [1, 5]: absence of a ThT-signal | Secondary conformation / conformational transition over incubation (far-UV CD), in words [1, 6]: remained mainly under a random coil structure after a week of incubation | Cytotoxicity compared with unmodified IAPP, in words [2]: reduced IAPP toxicity | Cell death in Live/Dead assay, in words [4]: decreased toxicity compared to unmodified IAPP

L16P: full-length IAPP with Leu16 substituted by Pro (KCNTATCATQRLANFPVHSSNNFGAILSSTNVGSNTY; disulfide 2-7; ends not checked; UniProt P10997 34-70, looked up, variant L16P)
Overall effect of the substitution on amyloid formation, in words [1, 5]: completely inhibited amyloid formation | ThT fluorescence of incubated peptide, in words [1, 5]: absence of a ThT and ANS signal | Secondary conformation / conformational transition over incubation (far-UV CD), in words [1, 6]: random coil conformation observed after 7 days incubation | Cytotoxicity compared with unmodified IAPP, in words [2]: less cytotoxic than unmodified IAPP

N14P: full-length IAPP with Pro at position Asn14 (KCNTATCATQRLAPFLVHSSNNFGAILSSTNVGSNTY; disulfide 2-7; ends not checked; UniProt P10997 34-70, looked up, variant N14P)
Incubation time at which the random coil to β-sheet conformational transition is seen (far-UV CD) [1, 6]: 24 h | Assemblies observed by AFM after 24 h incubation ([1]; 20 mM Tris-HCl pH 7.4, room temperature, no agitation, 24 h): dense network of fibrils
